Measurements taken from patent US20030165887A1 (BURNHAM INSTITUTE, published 2003).

Key:
Experiment in all cases: co-immunoprecipitation, transfected HEK293T cells, SDS-PAGE/immunoblot
Cardiak (RIP2) = molecular target: T1, Cardiak (RIP2) (UniProt O43353 1-540, limits assumed)
T1 construct: also called RICK
Method: (§1) The TUCAN polypeptides were expressed by transient transfection in HEK293T cells together with epitope-tagged pro-caspase-9 or other proteins. […] Cell lysates were prepared from transfected cells and immunoprecipitations were performed using anti-Flag or anti-Myc antibodies, followed by SDS-PAGE/immunoblot analysis.

CARD9 = molecular target: T2, CARD9 (UniProt Q9H257 1-536, limits assumed)
T2 sequence (looked up): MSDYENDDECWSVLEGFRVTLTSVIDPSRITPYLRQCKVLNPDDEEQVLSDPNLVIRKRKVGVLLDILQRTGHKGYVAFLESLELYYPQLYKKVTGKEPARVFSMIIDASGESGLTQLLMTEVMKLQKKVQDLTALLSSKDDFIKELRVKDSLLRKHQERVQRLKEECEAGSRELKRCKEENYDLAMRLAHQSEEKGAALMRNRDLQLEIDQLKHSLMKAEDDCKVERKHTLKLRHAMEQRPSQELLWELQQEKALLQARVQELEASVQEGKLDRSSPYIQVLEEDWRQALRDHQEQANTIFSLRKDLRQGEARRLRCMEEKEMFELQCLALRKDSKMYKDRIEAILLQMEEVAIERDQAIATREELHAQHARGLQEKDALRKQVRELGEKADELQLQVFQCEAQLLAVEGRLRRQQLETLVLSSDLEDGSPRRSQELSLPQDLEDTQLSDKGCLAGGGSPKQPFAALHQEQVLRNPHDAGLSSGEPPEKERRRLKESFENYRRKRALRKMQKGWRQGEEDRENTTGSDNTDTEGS
Method: as §1

cIAP1 = cIAP1 (UniProt Q13490 1-618, limits assumed)
Sequence of cIAP1 (Q13490 whole entry): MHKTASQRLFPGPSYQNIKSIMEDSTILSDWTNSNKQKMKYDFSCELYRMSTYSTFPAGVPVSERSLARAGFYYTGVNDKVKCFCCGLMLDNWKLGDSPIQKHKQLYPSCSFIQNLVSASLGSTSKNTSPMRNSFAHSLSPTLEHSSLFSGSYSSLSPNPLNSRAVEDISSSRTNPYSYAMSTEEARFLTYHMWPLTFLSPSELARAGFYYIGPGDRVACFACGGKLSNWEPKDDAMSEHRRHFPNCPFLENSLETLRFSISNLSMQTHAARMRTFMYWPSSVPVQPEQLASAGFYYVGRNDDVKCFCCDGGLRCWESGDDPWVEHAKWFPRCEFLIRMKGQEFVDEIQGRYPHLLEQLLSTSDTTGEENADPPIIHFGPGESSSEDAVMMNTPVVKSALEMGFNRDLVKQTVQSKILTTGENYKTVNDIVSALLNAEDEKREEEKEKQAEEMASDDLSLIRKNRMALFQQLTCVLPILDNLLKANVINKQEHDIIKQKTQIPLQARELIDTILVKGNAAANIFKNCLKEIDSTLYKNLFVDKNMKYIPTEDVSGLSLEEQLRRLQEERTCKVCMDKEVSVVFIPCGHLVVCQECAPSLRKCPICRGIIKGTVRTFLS
Method: as §1

cIAP2 = cIAP2 (Homo sapiens (Human), UniProt Q13489 1-604)
Sequence of cIAP2 (Q13489 whole entry): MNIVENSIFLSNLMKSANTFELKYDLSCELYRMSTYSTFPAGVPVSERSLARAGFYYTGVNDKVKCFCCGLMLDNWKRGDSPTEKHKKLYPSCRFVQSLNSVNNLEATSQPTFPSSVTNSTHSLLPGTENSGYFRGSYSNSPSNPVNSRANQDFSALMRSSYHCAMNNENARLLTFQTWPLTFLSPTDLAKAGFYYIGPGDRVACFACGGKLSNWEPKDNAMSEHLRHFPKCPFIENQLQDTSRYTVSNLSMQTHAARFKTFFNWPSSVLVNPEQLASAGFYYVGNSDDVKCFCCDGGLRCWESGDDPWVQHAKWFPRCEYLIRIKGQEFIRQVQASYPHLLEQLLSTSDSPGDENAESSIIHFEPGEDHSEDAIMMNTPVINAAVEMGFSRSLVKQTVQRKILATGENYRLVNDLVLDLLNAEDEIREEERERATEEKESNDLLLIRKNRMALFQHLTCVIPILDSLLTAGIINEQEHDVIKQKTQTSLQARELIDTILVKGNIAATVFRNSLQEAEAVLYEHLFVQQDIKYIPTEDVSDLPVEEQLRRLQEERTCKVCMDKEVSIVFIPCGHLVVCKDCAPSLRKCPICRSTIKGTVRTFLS
Method: as §1

pro-caspase-8 = pro-caspase-8 (UniProt Q14790 1-479, limits assumed)
Sequence of pro-caspase-8 (Q14790 whole entry): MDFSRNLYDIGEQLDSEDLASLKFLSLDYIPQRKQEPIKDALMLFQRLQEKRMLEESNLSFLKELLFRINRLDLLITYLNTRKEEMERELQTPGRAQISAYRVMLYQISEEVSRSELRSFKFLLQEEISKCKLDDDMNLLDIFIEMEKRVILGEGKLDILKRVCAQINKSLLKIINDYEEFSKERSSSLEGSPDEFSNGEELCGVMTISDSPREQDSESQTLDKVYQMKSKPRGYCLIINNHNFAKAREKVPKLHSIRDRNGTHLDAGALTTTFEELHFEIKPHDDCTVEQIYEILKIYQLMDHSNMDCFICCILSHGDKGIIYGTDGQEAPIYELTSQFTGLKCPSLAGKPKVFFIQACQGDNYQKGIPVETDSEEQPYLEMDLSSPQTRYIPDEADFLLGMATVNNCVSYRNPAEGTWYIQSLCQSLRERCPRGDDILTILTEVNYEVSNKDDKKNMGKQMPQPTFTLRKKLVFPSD
Method: as §1

pro-caspase-10 = molecular target: T3, pro-caspase-10 (UniProt Q92851 1-521, limits assumed)
T3 sequence (looked up): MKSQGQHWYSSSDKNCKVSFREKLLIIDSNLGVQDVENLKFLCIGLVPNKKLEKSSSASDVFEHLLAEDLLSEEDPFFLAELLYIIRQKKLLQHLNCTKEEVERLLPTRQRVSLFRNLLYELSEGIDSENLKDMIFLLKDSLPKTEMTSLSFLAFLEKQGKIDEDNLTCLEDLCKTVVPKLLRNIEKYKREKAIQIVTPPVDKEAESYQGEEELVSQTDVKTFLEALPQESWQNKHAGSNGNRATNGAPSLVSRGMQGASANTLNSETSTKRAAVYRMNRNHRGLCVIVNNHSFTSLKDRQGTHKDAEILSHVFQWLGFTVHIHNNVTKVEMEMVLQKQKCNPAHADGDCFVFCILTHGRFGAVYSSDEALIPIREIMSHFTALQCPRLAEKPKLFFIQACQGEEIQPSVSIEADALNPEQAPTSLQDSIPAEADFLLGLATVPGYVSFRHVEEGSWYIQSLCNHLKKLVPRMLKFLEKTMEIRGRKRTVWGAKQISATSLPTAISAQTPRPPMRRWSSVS
Method: as §1

pro-Caspase-2 = molecular target: T4, pro-Caspase-2 (UniProt P42575 1-452, limits assumed)
T4 sequence (looked up): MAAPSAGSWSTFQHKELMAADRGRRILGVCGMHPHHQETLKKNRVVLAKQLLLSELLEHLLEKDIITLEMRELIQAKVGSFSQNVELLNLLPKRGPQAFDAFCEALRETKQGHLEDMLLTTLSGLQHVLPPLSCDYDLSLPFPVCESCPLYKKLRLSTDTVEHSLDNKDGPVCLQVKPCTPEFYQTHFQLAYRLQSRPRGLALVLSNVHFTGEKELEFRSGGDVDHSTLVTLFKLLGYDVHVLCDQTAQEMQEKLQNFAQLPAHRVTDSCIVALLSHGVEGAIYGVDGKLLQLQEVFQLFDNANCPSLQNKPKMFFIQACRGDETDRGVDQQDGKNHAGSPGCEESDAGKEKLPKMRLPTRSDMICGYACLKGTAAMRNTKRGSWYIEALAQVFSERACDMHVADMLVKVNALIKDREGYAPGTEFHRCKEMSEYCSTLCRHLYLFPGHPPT
Method: as §1

CED4 = molecular target: T5, CED4 (UniProt P30429 1-549, limits assumed)
T5 sequence (looked up): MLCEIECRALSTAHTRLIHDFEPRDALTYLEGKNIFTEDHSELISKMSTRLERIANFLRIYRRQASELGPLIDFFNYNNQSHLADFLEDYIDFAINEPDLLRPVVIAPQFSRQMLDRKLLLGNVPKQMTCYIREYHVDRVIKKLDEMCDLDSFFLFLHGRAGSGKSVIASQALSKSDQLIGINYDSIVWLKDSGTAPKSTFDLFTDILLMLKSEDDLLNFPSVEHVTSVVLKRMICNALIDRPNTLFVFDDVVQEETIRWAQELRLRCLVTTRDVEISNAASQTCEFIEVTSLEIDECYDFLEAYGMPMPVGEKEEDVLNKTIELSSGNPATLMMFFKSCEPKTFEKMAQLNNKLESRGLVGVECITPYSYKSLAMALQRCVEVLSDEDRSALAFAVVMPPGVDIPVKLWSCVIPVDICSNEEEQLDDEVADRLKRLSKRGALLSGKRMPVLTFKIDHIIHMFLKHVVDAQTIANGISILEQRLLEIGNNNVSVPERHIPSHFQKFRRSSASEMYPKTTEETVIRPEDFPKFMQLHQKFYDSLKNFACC
Method: as §1

Measured: binding result

T1 sequence (O43353 whole entry): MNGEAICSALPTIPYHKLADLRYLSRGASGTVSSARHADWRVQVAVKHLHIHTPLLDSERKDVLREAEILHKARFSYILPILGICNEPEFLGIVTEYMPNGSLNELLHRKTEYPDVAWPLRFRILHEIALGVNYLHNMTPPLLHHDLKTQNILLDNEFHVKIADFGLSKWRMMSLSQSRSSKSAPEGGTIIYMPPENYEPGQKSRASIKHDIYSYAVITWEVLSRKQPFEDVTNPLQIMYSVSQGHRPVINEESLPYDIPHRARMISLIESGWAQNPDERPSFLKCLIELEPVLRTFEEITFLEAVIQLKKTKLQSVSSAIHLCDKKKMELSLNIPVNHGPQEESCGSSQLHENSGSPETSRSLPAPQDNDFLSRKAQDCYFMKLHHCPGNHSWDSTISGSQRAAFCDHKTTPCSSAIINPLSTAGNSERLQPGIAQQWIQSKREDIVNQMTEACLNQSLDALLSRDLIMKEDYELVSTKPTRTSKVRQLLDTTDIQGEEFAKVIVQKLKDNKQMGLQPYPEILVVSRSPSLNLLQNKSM

B1: TUCAN (Tumor Up-regulated CARD-containing Antagonist of Caspase Nine), full-length (other)
chain: MMRQRQSHYCSVLFLSVNYLGGTFPGDICSEENQIVSSYASKVCFEIEEDYKNRQFLGPEGNVDVELIDKSTNRYSVWFPTAGWYLWSATGLGFLVRDEVTVTIAFGSWSQHLALDLQHHEQWLVGGPLFDVTAEPEEAVAEIHLPHFISLQGEVDVSWFLVAHFKNEGMVLEHPARVEPFYAVLESPSFSLMGILLRIASGTRLSIPITSNTLIYYHPHPEDIKFHLYLVPSDALLTKAIDDEEDRFHGVRLQTSPPMEPLNFGSSYIVSNSANLKVMPKELKLSYRSPGEIQHFSKFYAGQMKEPIQLEITEKRHGTLVWDTEVKPVDLQLVAASAPPPFSGAAFVKENHRQLQARMGDLKGVLDDLQDNEVLTENEKELVEQEKTRQSKNEALLSMVEKKGDLALDVLFRSISERDPYLVSYLRQQNL
notes: Full-length TUCAN expressed by transient transfection in HEK293T cells; also called full-length TUCAN; CARD-X
no binding: all assays above
